Reference: patent publication US20200024330A1

Assays:
Assay in all cases: cell-based or functional assay
[1] = target: HIV-1 CMU02 envelope glycoprotein (Env) on pseudovirus (HIV-1)
[2] = target: HIV-1 Env of isolate MGRM-D-011 (clade D) (HIV-1)
[3] = target: HIV-1 Env of isolate 92UG001 (clade D) (HIV-1)
[4] = target: HIV-1 Env of isolate MGRM-D-028 (clade D) (HIV-1)
[5] = target: HIV-1 MGRM-A-008 envelope glycoprotein (Env) (HIV-1)
[6] = target: HIV-1 MGRM-F1-016 Env (pseudovirus) (HIV-1)
[7] = target: HIV-1 92RW009 envelope glycoprotein (Env) (HIV-1)
[8] = target: HIV-1 Env of pseudovirus PVO.4 (Acute), clade B (HIV-1)
[9] = target: HIV-1 Env of isolate MGRM-G-027 (clade G pseudovirus) (HIV-1)
[10] = target: HIV-1 Env of pseudovirus MGRM-Chronic-B-002, clade B (HIV-1)
[11] = target: HIV-1 93UG077 envelope glycoprotein (Env) on pseudovirus (HIV-1)
[12] = target: HIV-1 MGRM-F1-022 Env (pseudovirus) (HIV-1)
[13] = target: HIV-1 92UG005 envelope protein (Env) on pseudovirus (HIV-1)
[14] = target: HIV-1 Env of isolate MGRM-AE-001 (HIV-1)
[15] = target: HIV-1 CMU02 envelope protein (Env) on pseudovirus (HIV-1)
[16] = target: HIV-1 JRCSF envelope glycoprotein (Env) on pseudovirus (HIV-1)
[17] = target: HIV-1 94UG103 envelope glycoprotein (Env) (HIV-1)
[18] = target: HIV-1 Env of pseudovirus 92BR020, clade B (HIV-1)

1443_C16 (PG16) (TCN-116) (antibody), sequence (VH): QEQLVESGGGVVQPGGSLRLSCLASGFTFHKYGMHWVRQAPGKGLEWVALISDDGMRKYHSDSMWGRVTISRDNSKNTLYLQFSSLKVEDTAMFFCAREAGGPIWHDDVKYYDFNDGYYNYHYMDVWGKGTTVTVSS
1443_C16 (PG16) (TCN-116) (antibody), sequence (VL): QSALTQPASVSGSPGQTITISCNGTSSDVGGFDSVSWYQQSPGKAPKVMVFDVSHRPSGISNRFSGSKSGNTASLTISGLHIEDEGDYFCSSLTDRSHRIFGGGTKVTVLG

| Substance | IC90 (pseudovirus neutralization) [1] [µg/mL] | IC50 (µg/ml), pseudovirus neutralization [2] [µg/mL] | IC50 (µg/ml), pseudovirus neutralization [3] [µg/mL] | IC50 (µg/ml), pseudovirus neutralization [4] [µg/mL] | IC50 (µg/ml), pseudovirus neutralization [5] [µg/mL] | IC50 (µg/ml), pseudovirus neutralization [6] [µg/mL] | IC50 (µg/ml), pseudovirus neutralization [7] [µg/mL] | IC50 (µg/ml), pseudovirus neutralization [8] [µg/mL] | IC50 (µg/ml), pseudovirus neutralization [9] [µg/mL] | IC50 (µg/ml), pseudovirus neutralization [10] [µg/mL] | IC90 (pseudovirus neutralization) [11] [µg/mL] | IC50 (µg/ml), pseudovirus neutralization [12] [µg/mL] | neutralization IC50 [13] [µg/mL] | IC50 (µg/ml), pseudovirus neutralization [14] [µg/mL] | neutralization IC50 [15] [µg/mL] | IC90 (pseudovirus neutralization) [16] [µg/mL] | IC50 (µg/ml), pseudovirus neutralization [17] [µg/mL] | IC50 (µg/ml), pseudovirus neutralization [18] [µg/mL] |
| --- | --- | --- | --- | --- | --- | --- | --- | --- | --- | --- | --- | --- | --- | --- | --- | --- | --- | --- |
| b12 (antibody) | 34.2 | 7.75 | 1.01 | 0.78 | > 50 | > 50 | > 50 | > 50 | > 50 | 0.86 | > 50 | > 50 | > 50 | 25.9 | 4.25 | 1.17 | 6.92 | > 50 |
| 4E10 (antibody) | 13.4 | 0.91 | 13.6 | 1.28 | 7.59 | 7.61 | > 50 | 18.3 | 1.19 | 2.19 | > 50 | 1.01 | 8.86 | 0.85 | 0.59 | 44.1 | 4.97 | > 50 |
| 2F5 (antibody) | 12.2 | > 50 | 13 | > 50 | > 50 | 21.5 | 39.1 | > 50 | 0.28 | 1.25 | 33.4 | 1.26 | 11.8 | 0.29 | 0.38 | 25.3 | 1.92 | > 50 |
| 1443_C16 (PG16) (TCN-116) (antibody) | > 50 | 0.01 | > 50 | > 50 | > 50 | 1.12 | 0.11 | 5.43 | 0.01 | 3.06 | > 50 | 0.08 | > 50 | 4.33 | > 50 | 0.013 | 0.04 | > 50 |
| 2G12 (antibody) | > 50 | 1.5 | > 50 | > 50 | > 50 | > 50 | 26.1 | 0.8 | > 50 | > 50 | > 50 | > 50 | > 50 | > 50 | > 50 | 5.38 | 48.1 | 4.84 |
